In general, IC50 refers to the concentration that inhibits the measured activity by half. Broadly, the Ki is a measure of affinity in units of concentration, obtained from inhibition or displacement. High values mean a looser hold on the target, low ones a stronger hold on the target.

Positions of bridges follow the written chain, without caps; N, C: chain ends. Primed or numbered codes have the meaning given here. No end group written: not given here. *: point of attachment. dimannose = dimannose sugar chain attached to the residue; GlcNAc(3) = GlcNAc attached to the Cys side chain; Biotin = O=C1N[C@H]2[C@H](CS[C@H]2CCCCC(=O)*)N1; disialo = disialo sugar chain; GlcNAc = N-acetylglucosamine

The values below come from patent publication US20160368961A1 (GLYTECH, published 2016).

Test [1] deals with somatostatin receptors SSTR1-SSTR5 (receptor not singled out in the sentence). The experiment in a line: competitive radioligand binding.
For test [2], the target named is Somatostatin receptor SSTR2 (UniProt P30874 1-369, limits assumed). The experiment in a line: cell-based or functional assay.
For test [3], the target named is Somatostatin receptor SSTR4 (UniProt P31391 1-388, limits assumed). The experiment in a line: cell-based or functional assay.
The target of test [4] is Somatostatin receptor SSTR5 (UniProt P35346 1-364, limits assumed). The experiment in a line: cell-based or functional assay.
The target in test [5] is Somatostatin receptor SSTR3 (human recombinant, CHO-K1 cells) (human, UniProt P32745 1-418). The experiment in a line: competitive radioligand binding.
In test [6] the target is somatostatin receptor SSTR3 (Human, UniProt P32745 1-418). The experiment in a line: competitive radioligand binding.
The target in test [7] is T1, somatostatin receptor SSTR2 (Human, UniProt P30874 1-369). The experiment in a line: cell-based or functional assay.
The target in test [8] is somatostatin receptor SSTR4 (Human, UniProt P31391 1-388). The experiment in a line: cell-based or functional assay.
For test [9], the target named is T1, somatostatin receptor SSTR2. The experiment in a line: competitive radioligand binding.
For test [10], the target named is somatostatin receptor SSTR1 (Human, UniProt P30872 1-391). The experiment in a line: competitive radioligand binding.
Test [11] concerns the target somatostatin receptor SSTR1 (human) (UniProt P30872). The experiment in a line: competitive radioligand binding.
Test [12] addresses somatostatin receptor SSTR2 (human) (UniProt P30874). The experiment in a line: competitive radioligand binding.
Test [13] has as its target Somatostatin receptor SSTR1 (human recombinant, CHO-K1 cells) (human, UniProt P30872 1-391). The experiment in a line: competitive radioligand binding.

T1 sequence (P30874 whole entry): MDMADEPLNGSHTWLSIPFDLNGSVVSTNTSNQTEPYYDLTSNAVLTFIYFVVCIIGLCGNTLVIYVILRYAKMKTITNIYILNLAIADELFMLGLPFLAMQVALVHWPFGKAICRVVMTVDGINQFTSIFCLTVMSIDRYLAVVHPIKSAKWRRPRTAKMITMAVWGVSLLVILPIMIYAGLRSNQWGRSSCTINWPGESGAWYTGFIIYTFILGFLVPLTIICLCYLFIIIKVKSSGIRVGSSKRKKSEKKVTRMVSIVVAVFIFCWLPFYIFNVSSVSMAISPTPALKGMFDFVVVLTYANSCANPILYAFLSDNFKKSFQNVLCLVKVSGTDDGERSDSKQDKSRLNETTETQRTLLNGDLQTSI
Chain of Somatostatin receptor SSTR2 (P30874 whole entry): as above
Chain of somatostatin receptor SSTR3 (P32745 whole entry): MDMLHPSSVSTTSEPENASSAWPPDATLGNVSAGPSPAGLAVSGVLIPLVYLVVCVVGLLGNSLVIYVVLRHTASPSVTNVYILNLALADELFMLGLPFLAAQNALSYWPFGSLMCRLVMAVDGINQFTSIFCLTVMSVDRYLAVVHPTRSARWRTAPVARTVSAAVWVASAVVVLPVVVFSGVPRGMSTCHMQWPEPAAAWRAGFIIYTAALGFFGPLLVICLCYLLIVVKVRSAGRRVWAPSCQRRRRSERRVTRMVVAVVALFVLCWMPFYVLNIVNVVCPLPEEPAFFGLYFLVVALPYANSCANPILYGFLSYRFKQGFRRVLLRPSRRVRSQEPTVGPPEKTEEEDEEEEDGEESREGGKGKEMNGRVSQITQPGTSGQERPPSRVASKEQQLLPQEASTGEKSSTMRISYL
Chain of Somatostatin receptor SSTR5 (P35346 whole entry): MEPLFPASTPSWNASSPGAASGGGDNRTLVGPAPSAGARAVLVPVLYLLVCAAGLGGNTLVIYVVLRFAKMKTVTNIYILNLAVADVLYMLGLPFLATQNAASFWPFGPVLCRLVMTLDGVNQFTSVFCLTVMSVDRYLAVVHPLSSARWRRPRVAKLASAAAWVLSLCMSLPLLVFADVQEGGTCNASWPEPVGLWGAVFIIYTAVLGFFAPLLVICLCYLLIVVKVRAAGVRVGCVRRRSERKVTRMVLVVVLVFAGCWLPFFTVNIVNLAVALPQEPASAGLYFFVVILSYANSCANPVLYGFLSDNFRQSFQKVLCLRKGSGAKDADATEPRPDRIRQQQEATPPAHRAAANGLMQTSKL
Chain of somatostatin receptor SSTR4 (P31391 whole entry): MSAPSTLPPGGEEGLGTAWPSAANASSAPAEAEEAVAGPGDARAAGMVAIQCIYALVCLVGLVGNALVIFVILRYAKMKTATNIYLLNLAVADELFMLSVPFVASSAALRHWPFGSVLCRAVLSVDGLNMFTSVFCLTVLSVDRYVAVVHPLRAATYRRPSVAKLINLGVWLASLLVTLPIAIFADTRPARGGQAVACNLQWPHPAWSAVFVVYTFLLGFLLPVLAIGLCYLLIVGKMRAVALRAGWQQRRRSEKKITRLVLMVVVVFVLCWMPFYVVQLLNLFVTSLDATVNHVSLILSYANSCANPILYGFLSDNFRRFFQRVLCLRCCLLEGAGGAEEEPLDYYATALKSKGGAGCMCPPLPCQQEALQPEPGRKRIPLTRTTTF
Chain of Somatostatin receptor SSTR4 (P31391 whole entry): as above
Chain of somatostatin receptor SSTR2 (human) (P30874 whole entry): as the sequence (P30874 whole entry) above
Chain of Somatostatin receptor SSTR3 (human recombinant, CHO-K1 cells) (P32745 whole entry): as the sequence (P32745 whole entry) above
Chain of somatostatin receptor SSTR1 (P30872 whole entry): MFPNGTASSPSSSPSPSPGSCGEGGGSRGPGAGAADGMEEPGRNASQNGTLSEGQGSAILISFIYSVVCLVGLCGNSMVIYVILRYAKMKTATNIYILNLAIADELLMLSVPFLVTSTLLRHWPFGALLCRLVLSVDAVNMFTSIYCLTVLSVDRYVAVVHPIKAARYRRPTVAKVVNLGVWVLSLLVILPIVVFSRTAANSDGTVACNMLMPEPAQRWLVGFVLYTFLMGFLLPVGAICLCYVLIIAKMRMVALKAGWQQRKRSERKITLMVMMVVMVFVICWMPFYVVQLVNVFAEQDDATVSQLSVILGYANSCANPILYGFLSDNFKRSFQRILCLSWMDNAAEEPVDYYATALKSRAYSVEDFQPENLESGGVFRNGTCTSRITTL
Chain of somatostatin receptor SSTR1 (human) (P30872 whole entry): as above
Chain of Somatostatin receptor SSTR1 (human recombinant, CHO-K1 cells) (P30872 whole entry): as above

Regarding “S1C(disialo).N5C(disialo)-SRIF28 (peptide)”, the ratio of Ki to the Ki of unglycosylated SRIF14 in test [1] is 15.7 ratio (:1). The molecule C(disialo sugar chain)ANSC(disialo sugar chain)PAMC(disialo sugar chain)PRERKAGCKNFFWKTFTSC (disulfide 17-28) [S1C(disialo).N5C(disialo).A9C(disialo)-SRIF28] came in with a fold difference in Ki against the glycosylated forms of Examples 1 and 21 in test [1] of 10 fold. Take C(disialo sugar chain)ANSNPAMAPRERKAGCKC(GlcNAc)FFWKTFTSC (disulfide 17-28) [S1C(disialo).N19C(GlcNAc)-SRIF28]: the “IC50 of cAMP production suppressing action (agonist activity)” value (“IC50 … (agonist activity)” below) in test [2] was 0.08 nM. For C(GlcNAc(3))ANSNPAMAPRERKAGCKNFFWKTFTSC (disulfide 17-28) [S1C(GlcNAc)-SRIF28], in test [2], the “IC50 … (agonist activity)” value turned out to be 0.04 nM. Consider C(diGlcNAc sugar chain)ANSNPAMAPRERKAGCKNFFWKTFTSC (disulfide 17-28) [S1C(diGlcNAc)-SRIF28], for which the “IC50 … (agonist activity)” value in [3] stood at 0.05 nM. In the case of C(disialo sugar chain)ANSC(disialo sugar chain)PAMAPRERKAGCKNFFWKTFTSC (disulfide 17-28) [S1C(disialo).N5C(disialo)-SRIF28], the “IC50 … (agonist activity)” value in [4] stood at 0.09 nM.

B1: 29C(disialo)-SRIF28 (peptide)
peptide: SANSNPAMAPRERKAGCKNFFWKTFTSCC
modifications: disialo sugar chain attached Cys added after Cys28 (position 29); disulfide bond Cys17-Cys28
In the case of B1, the IC50 in test [5] was determined as 7 nM. In turn, Biotin-C(disialo sugar chain)ANSNPAMAPRERKAGCKNFFWKTFTSC (disulfide 17-28) [Biotin-S1C(disialo)-SRIF28] gave a Ki in [6] of 1 nM. That is a single-digit nanomolar value. Regarding C(disialo sugar chain)ANSNPAMAPRERKAGCKNFFWKTFTSC (disulfide 17-28) [S1C(disialo)-SRIF28], the “IC50 … (agonist activity)” value is 0.075 nM in [7] and 0.065 nM in [8]. In test [9], N(disialo sugar chain)ANSNPAMAPRERKAGCKC(dimannose)FFWKTFTSC (disulfide 17-28) [S1N(disialo).N19C(diMan)-SRIF28] returned an inhibition constant Ki of 3 nM. As to SANSNPAMAPRERKAGCKNFFWKTC(disialo)TSC (disulfide 17-28) [F25C(disialo)-SRIF28], the Ki in test [9] was greater than 531 nM; in test [10], greater than 828 nM; in test [6], greater than 342 nM. The Ki as fold of that of SRIF14 in [11] and in [12] was 310 to 5300 fold in each case. On to SANSC(disialo)PAMC(disialo)PRERKAGCKNFFWKTFTSC (disulfide 17-28) [N5C(disialo).A9C(disialo)-SRIF28], for which the IC50 in test [13] was determined as 30 nM. Regarding C(disialo sugar chain)ANSNPAMAPRERKAGCKNFFWKTFTSC-NH2 (disulfide 17-28) [S1C(disialo)-SRIF28-amide], in [9], the Ki came out at 0.7 nM.
